As a reminder, the EC50 is the concentration needed to bring the measured effect to its halfway point. For orientation: Kd means a measure of binding affinity in units of concentration. Read a low Kd as higher affinity. As a reminder, the koff is the rate constant with which the complex falls apart. The term kon denotes the second-order rate constant of association.

Six molecules from US20250250357A1 (NANJING ZAIMING PHARMACEUTICAL, published 2025) can be followed below.

Assay [1] concerns the target T1, human MSLN-R3 protein expressed on HEK293T cells (HEK293T-hMSLN-R3) (human, UniProt Q13421 487-606).
T1 construct: C-terminal limit uncertain
Description: FACS on HEK293T-hMSLN-R3 cells.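 Also: chimeric antibodies incubated with cells on ice for 2 h, binding read by flow cytometry as mean fluorescence intensity.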
Description: (§1) The desired cells were expanded to the logarithmic growth phase in a T-75 cell culture flask. […] After the cells from the previous step were subjected to cell counting, the cell pellet was resuspended to 2×10⁶ cells/mL in a blocking buffer of [PBS+2% (w/w) BSA] and added into a 96-well FACS reaction plate at 50 μL/well. A chimeric antibody (a sample to be tested) was added at 50 μL/well, and the plate was incubated on ice for 2 h. […] After the plate was centrifuged and washed 5 times with a PBST buffer, assay and analysis were performed by FACS (FACS CantoII, purchased from BD). Data analysis was performed by software (Flowjo) to obtain the mean fluorescence intensity (MFI) of the cells.

Assay [2] concerns the target T2, human MSLN-FL-his protein (human, UniProt Q13421 296-580).
T2 construct: made in HEK293E cells, purified on nickel column; also called hMSLN-FL-his; human MSLN full-length protein; not shown: His tag
Description: competitive ELISA; row F8-4.5. On the technique in general: In an ELISA, binding on a coated surface is turned into a signal by an enzyme label.

The target of assay [3] is T3, human MSLN protein endogenously expressed on OVCAR3 tumor cells (human, UniProt Q13421 296-598).
T3 construct: whole, on cells; endogenous expression on a tumor cell line; also called human mesothelin
T3 sequence (Q13421 other isoform, or with tags, fused parts or gaps): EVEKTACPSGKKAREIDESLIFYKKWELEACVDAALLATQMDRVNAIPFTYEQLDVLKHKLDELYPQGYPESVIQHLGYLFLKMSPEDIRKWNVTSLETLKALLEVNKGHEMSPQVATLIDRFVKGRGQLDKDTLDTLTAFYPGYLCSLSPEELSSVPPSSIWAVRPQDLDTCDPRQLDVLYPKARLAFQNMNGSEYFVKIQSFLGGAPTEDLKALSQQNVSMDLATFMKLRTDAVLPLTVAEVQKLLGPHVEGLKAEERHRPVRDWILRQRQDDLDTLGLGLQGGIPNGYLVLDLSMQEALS
In words: FACS on OVCAR3 cells.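 Also: flow cytometry of chimeric antibody binding to OVCAR3 cells, 2 h on ice, read as cellular mean fluorescence intensity.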
Description: as §1

Assay [4] deals with T2, human MSLN-FL-his protein. In words: SPR (Biacore), antibody captured on Protein A chip.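 Also: flow cell at 25 °C, antigen injected for 240 s at five concentrations from 200 nM downward, dissociation followed up to 600 s, double-referenced, fitted with Langmuir 1:1 model.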
Assay [5] has as its target T2, human MSLN-FL-his protein. In words: competitive ELISA; row F8-18.9.
Description: (§2) In order to identify antigen-binding sites of antibodies, MSLN chimeric antibodies were grouped using competitive ELISA.
(§3) The chimeric antibodies were diluted to 2 μg/mL with PBS and allowed to coat 96-well high-adsorption ELISA plates at 50 μL/well. After the plates were coated at 4° C. overnight, 250 μL of a blocking buffer (PBS containing 2% (w/w) BSA) was added for two hours of blocking at room temperature. 40 μg/mL of the antibodies to be tested were added, and then the human MSLN-FL-His protein with an EC₈₀ concentration corresponding to each of the antibodies to be tested was added for incubation for 2 h. The plates were washed 5 times with PBS, an HRP-labeled anti-His secondary antibody (purchased from Genescript, Cat. No. A00612) was then added for incubation for 1 h, and the plates were washed 5 times again. A TMB substrate was added at 50 μL/well, and after 10 minutes of incubation at room temperature, a stop solution (1.0 M HCl) was added at 50 μL/well. OD₄₅₀ nm values were read using an ELISA plate reader (Insight, purchased from PerkinElmer), and the competition rate between the antibodies was calculated according to the OD₄₅₀ nm values using a formula.
Assay [6] has as its target T2, human MSLN-FL-his protein. Description: competitive ELISA; row F8-15.19.
Description: as §2, §3
In assay [7] the target is T2, human MSLN-FL-his protein. Description: competitive ELISA; row F8-13.8.
Description: as §2, §3
For assay [8], the target named is T2, human MSLN-FL-his protein. In words: competitive ELISA; row Tab142.
Description: as §2, §3
Assay [9] has as its target T2, human MSLN-FL-his protein. Description: competitive ELISA; row F8-7.5.
Description: as §2, §3
Assay [10] concerns the target T2, human MSLN-FL-his protein. Description: competitive ELISA; row F8-27.1.
Description: as §2, §3
In assay [11] the target is T2, human MSLN-FL-his protein. In words: competitive ELISA; row F8-12.13.
Description: as §2, §3
Assay [12] addresses T2, human MSLN-FL-his protein. Description: competitive ELISA; row F8-19.21.
Description: as §2, §3
Assay [13] addresses T2, human MSLN-FL-his protein. In words: competitive ELISA; row F8-31.22.
Description: as §2, §3
Assay [14] deals with T2, human MSLN-FL-his protein. In words: competitive ELISA; row F8-5.15.
Description: as §2, §3
Assay [15] addresses T2, human MSLN-FL-his protein. In words: competitive ELISA; row Tab021.
Description: as §2, §3

T1 sequence (Q13421 495-614): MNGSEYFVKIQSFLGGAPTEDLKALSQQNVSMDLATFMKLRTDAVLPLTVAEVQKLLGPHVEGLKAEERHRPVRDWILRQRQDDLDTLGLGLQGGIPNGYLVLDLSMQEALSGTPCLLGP
T2 sequence (Q13421 other isoform, or with tags, fused parts or gaps): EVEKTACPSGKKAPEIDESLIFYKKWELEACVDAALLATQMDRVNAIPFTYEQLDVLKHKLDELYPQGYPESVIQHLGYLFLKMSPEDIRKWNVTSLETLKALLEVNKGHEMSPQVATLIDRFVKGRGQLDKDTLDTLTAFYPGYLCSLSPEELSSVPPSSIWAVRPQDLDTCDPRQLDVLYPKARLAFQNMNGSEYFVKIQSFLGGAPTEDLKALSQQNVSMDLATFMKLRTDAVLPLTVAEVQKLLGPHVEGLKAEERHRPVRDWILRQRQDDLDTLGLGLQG

B1: S009-F8-5.15 (antibody, human IgG1, kappa, V domains shown)
VH: QVQLQQPGTELVKPGASVKLSCKASGYTFTSYWMHWVKQRPGQGLEWIGHSNPSNGGTNYNEKFKSKATLTVDKSSSTAYMQLSSLTSEDSAVYYCARWVRGSNYEYFDVWGTGTTVTVSS
VL: DIVMTQSQKFMSTTVGDRVSIICKASQNVGSAVAWCQQKPGQSPKLLIYSASNRYTGVPDRFTGSGSGTDFTLTISNMQSEDLADYFCQQYSSYPLTFAGGTKLEIKR
notes: human-murine chimeric antibody, human IgG1/kappa constant regions
With B1, the “Maximum mean fluorescence intensity” value was determined as 98 in [1] and 4920 in assay [3]. The binding result in assay [1] is listed as “no binding”. In addition, the competition rate in [2] was 29.6%; in assay [5], 8.9%; in [6], 82.2%; in assay [7], 7.5%; in [8] it was 15.3%; in assay [9] it was -148%. The competition rate in [10] is 39.7%; in assay [11] it was 79.2%; in [12] it was 25.5%; in assay [13], 79%; in [14], 96.8%; in [15] it was 1.09%. Further, the EC50 in assay [3] was determined as 4.08 nM. The molecule also had a Kd in assay [4] of 27.4 nM. The same molecule showed a koff in assay [4] of 0.017 s⁻¹. For the same molecule, the kon in assay [4] amounted to 620000 M⁻¹ s⁻¹.

B2: S009-F8-13.8 (antibody, human IgG1, kappa, V domains shown)
VH: EFQLQQSGPELVKPGASVKISCKASGYSFTDYNMNWVKQTNGKSLEWIGIINPNYGTSSYNQKFKGKATLTVDQSSSTAYMQLNSLTSEDSAVYYCARVGRDNSGFDYWGQGTTLTVSS
VL: QIVLTQSPAIMSASPGEKVTMTCSASSSVSYMYWYQQKPGSSPRLLIYDTSNLASGVPVRFSGSGSGTSYSLTISRMEAEDAATYYCQQWSSYPPTFGSGTELEIKR
notes: as for B1
For the molecule B2, the figures for the “Maximum mean fluorescence intensity” value in assay [1] and in assay [3] were 95 and 13000, respectively. The binding result in assay [1] was “no binding”. Moreover, the competition rate in assay [2] is 93%; in assay [5], 11.3%; in [6], 99.8%; in assay [7] it was 86.2%; in assay [8] it was 93.8%; in [9] it was -135%. Besides, the competition rate came out at 98.4% in [10]; 97.9% in [11]; 96.5% in [12]; 99% in assay [13]; 99.9% in [14]; 14.2% in [15]. This molecule registered an EC50 in assay [3] of 1.42 nM. Also, in assay [4], the Kd turned out to be 0.95 nM. In assay [4], this molecule returned a koff of 0.00125 s⁻¹. This molecule gave a kon in assay [4] of 1.31e+06 M⁻¹ s⁻¹.

B3: S009-F8-31.22 (antibody, human IgG1, kappa, V domains shown)
VH: EVQLVESGGDLVKPGGSLKLSCAASGFTFSTYGMSWVRQTPDKRLEWVATISSGGSYTYYPDSLKGRFTISRDNAKNTLYLQMSSLKSEDTAMYYCARHEGYYYGKDYWGQGTTLTVSS
VL: DIVLTQSPATLSVTPGDSVSLSCRASHSISNNLHWYQQKSHESPRLLIKYASQSISGIPSKFSGSGSGTDFTLSINSVETEDFGMYFCQQTNSWPLTFGAGTKLELKR
notes: as for B1
Turning to B3, the “Maximum mean fluorescence intensity” value in [1] came to 189; in assay [3], 7750. Further, in assay [1], the binding result is “no binding”. Moreover, the competition rate was -2.53% in assay [2]; 0.11% in [5]; 83.2% in assay [6]; 5.21% in assay [7]; 12.9% in [8]; 18.1% in assay [9]. Moreover, the competition rate in [10] is 11.7%; in [11] it was 64.8%; in assay [12], 16.3%; in assay [13], 69.3%; in assay [14], 86.5%; in [15], 10.3%. Moreover, the EC50 in [3] was found to be 0.64 nM. Also, the affinity in assay [4], expressed as Kd, was 87.6 nM. The koff in [4] was 0.0276 s⁻¹. Moreover, the kon in assay [4] amounted to 315000 M⁻¹ s⁻¹.

B4: S009-F8-19.21 (antibody, human IgG1, kappa, V domains shown)
VH: EFQLQQSGPELVKPGASVKISCKTSGYSFTDYNMNWVKQSNGKSLEWIGVINPNYGTTGYNQKFKGKATLTVDQSSSTAYMQLNSLTSEDSAVYYCARGGYDGEAMDYWGHGTSVTVSS
VL: QIVLTQSPAIMSASPGEKVTMTCSASSSVNYMHWYQQKSGTSPKRWIYDTSKLASGVPARFSGSGSGTSYSLTISSMEAEDAATYYCQQWSSYPPTFGGGTKLEIKR
notes: as for B1
For B4, the results for the “Maximum mean fluorescence intensity” value in assay [1] and in assay [3] were 98 and 13000, respectively. In addition, the binding result in assay [1] is “no binding”. Further, the competition rate is 89.7% in [2]; 6.96% in assay [5]; 99.8% in assay [6]; 82% in assay [7]; 92.2% in assay [8]; -137% in [9]. Also, the competition rate is 98.4% in assay [10]; 97.3% in assay [11]; 95.4% in assay [12]; 98.5% in [13]; 99.5% in [14]; 4.93% in assay [15]. The molecule also returned an EC50 in assay [3] of 5.13 nM. This molecule yielded a Kd in assay [4] of 1.98 nM. The koff in [4] came to 0.00172 s⁻¹. This molecule also registered a kon in assay [4] of 871000 M⁻¹ s⁻¹.

B5: S009-F8-12.13 (antibody, human IgG1, kappa, V domains shown)
VH: QVQLQQPGAELVKPGASVKLSCKASGYTFTSYWMHWVKQRPGQGLEWIGMIHPNSGSTNYNEKFKSKATLTVDKSSSTAYMQLSSLTSEDSAVYYCARRTPIITLVGHWYFDVWGTGTTVTVSS
VL: DIVMTQSHKFMSTSVGDRVSITCKASQDVGTAVAWYQQKPGQSPKLLIYWASTRHTGVPDRFTGSGSGTDFTLTISNVQSEDLADYFCQQYSSYPLTFGAGTKLELKR
notes: as for B1
For the molecule B5, the figures for the “Maximum mean fluorescence intensity” value in assay [1] and in assay [3] were 135 and 9830, respectively. Moreover, in [1], the binding result is reported as “no binding”. Also, the competition rate in assay [2] is 88.2%; in [5], 10.1%; in [6], 98.5%; in assay [7], 51.1%; in assay [8] it was 65.5%; in assay [9], -135%. The competition rate in [10] was 93.5%; in assay [11], 93.7%; in [12], 75.9%; in assay [13], 92.2%; in [14], 99.3%; in [15], 6.56%. Further, the EC50 in assay [3] is 2.24 nM. The same molecule gave a dissociation constant (Kd) in [4] of 5.5 nM. In addition, the koff in assay [4] came to 0.00296 s⁻¹. In assay [4], this molecule came in with a kon of 539000 M⁻¹ s⁻¹.

B6: S009-F8-15.19 (antibody, human IgG1, kappa, V domains shown)
VH: EFQLQQSGPELVKPGASVKISCKASGYSFTDYNMNWVKQSNGKSLEWIGIINPYYGTTSNNQNFKGKATLTVDQSSSTAYMQLNSLTSDDSAVYYCARWLRRDAMDYWGQGTSVTVSS
VL: DIVMTPSHKFMSTSVGDRVSIACKASQDVGSSVAWYQQKPGQSPKLLIYWTSTRHTGVPDRFTGSGSGTDFTLTISNVQSEDLADYFCQQYSSYPWTFGGGTKLEIKR
notes: as for B1
Regarding B6, the “Maximum mean fluorescence intensity” value in [1] was 165; in [3], 8140. Further, the binding result in assay [1] was “no binding”. Moreover, the competition rate in assay [2] was 43.8%; in assay [5] it was 8.37%; in [6] it was 94.1%; in assay [7], 24%; in [8], 39.3%; in assay [9], -117%. In addition, the competition rate in assay [10] is 75.5%; in [11], 89.3%; in assay [12] it was 46.9%; in assay [13] it was 90.7%; in assay [14], 99.3%; in assay [15] it was -2.08%. Also, the EC50 in [3] worked out at 3.16 nM. The Kd in assay [4] is 5.37 nM. In assay [4], this molecule yielded a koff of 0.00724 s⁻¹. The same molecule came in with a kon in assay [4] of 1.35e+06 M⁻¹ s⁻¹.
